Data: US20030236190A1 (published 2003)
Positions of bridges follow the written chain, without caps; N, C: chain ends. No end group written: not given here.

B1: H2CA-4-H6-IGFR (peptide)
peptide: VGRASGFPENFYDWFGRQLSLQSGEQ
B2: B6Hα-1-A3-IR (peptide)
peptide: SRAKVEAEMPDSGDPFYHKLSELLASG
B3: 20E2A-3-D10-IGFR (peptide)
peptide: MMVVDGFYDALHQLVVAQSLG
B4: B6Hα-2-D1-IR (peptide)
peptide: GCEVIVEEGDSADPFYHKLSELCQGS
modifications: disulfide 2-23 (inferred)
B5: NNRPγ-4-A7-IR (peptide)
peptide: RFDPFYSYFVNLLGASA
B6: NNRPγ-4-A1-IR (peptide)
peptide: IIGGFYSYFNSVLRLGT
B7: B6Hα-3-E7-IR (peptide)
peptide: GCAVVEEAERSRGDPFYHKLSELIQGC
modifications: disulfide 2-27 (inferred)
B8: 20E2B-4-E9-IGFR (peptide)
peptide: RCQGTGFYTCIQELIGFGDPD
modifications: disulfide 2-10 (inferred)
B9: 26Hα-3-E8-IR (peptide)
peptide: RGKTAAVIVGRPADPFYHKLSELLQGG
B10: B6Hα-3-F7-IR (peptide)
peptide: SRVAATKEKRPSDDPFYHKLSELLQGS
B11: H2CA-4-F5-IGFR (peptide)
peptide: VGYQGQGDENFYDWFIRQVSGRLGVQ
B12: B6L-4-D7-IR (peptide)
peptide: AETSVQVGWIRLQSVWPGEHWNTVDPFYHKLSELLRGSGA
B13: H6Hα-4-G8-IR (peptide)
peptide: GGTKAVAKVGTRDDPFYHKLSELLQGS
B14: 20E2A-3-C7-IGFR (peptide)
peptide: VGTVAGFYDAIAQLVARASRV
B15: B6Eα-2-C10-IR (peptide)
peptide: SGAKVIVVTGDSGDPFYHKLSELLQGS
B16: A6L-0-E6-IR (peptide)
peptide: YRGMLVLGRSSDGAGKVAFERPARIGQTVFAVNFYDWFV
B17: 20E2A-3-A12-IGFR (peptide)
peptide: LSVALSFYDALGQLVAGEGRW
B18: H2CA-4-G9-IGFR (peptide)
peptide: GIISQSCPESFYDWFAGQVSDPWWCW
B19: B6Hα-3-F10-IR (peptide)
peptide: GCVVEWQKWHGASDPFYHKLSELGGCS
modifications: disulfide 2-26 (inferred)
B20: H2CA-4-F11-IGFR (peptide)
peptide: SAAQLFFQESFYDWFLRQVAESSQPN
B21: 20E2B-4-H8-IGFR (peptide)
peptide: PAGPCGFYCGLGLLLHGDQSP
modifications: disulfide 5-9 (inferred)
B22: H2CA-4-H8-IGFR (peptide)
peptide: SACQFDCHENFYDWFARQVSGGAAYG
modifications: not fully specified (bridges); cysteine pairing not given here
B23: B6Hα-2-D6-IR (peptide)
peptide: GRTMAVMAAGGPDDPFYHKLSELVQGG
B24: 20E22-1-A8-IGFR (peptide)
peptide: TLRSPTFYDWLEMVLTHGQGG
B25: RB538 (peptide)
peptide: MADYKDDDDKGSLDESFYDWFERQLGKKGGSGGSGGSGGSWLDQEWAWVQCEVYGRGCPSAAAGAPVPYPDPLEPRPG
notes: Recombinant F1-F6 (Site 1-Site 2) dimer peptide with tags at both ends
B26: RB540 (peptide)
peptide: MADYKDDDDKWLDQEWAWVQCEVYGRGCPSAAAGAPVPYPDPLEPRPG
notes: Recombinant F6 monomer peptide with tags at both ends
B27: RB437 (other, not shown: large carriers)
chain: NNNNLGIEGRISEFIEGRAQPAMAFHENFYDWFVRQVSAAAGAPVPYPDPLEPRAA
notes: MBP fusion, uncleaved
B28: RB521 (peptide)
peptide: MADYKDDDDKGSLDESFYDWFERQLGKKGGSGGSGSLDESFYDWFERQLGKKAAAGAPVPYPDPLEPRPG
notes: Recombinant F1-F1 dimer peptide with tags at both ends
B29: RB539 (peptide)
peptide: MADYKDDDDKWLDQEWAWVQCEVYGRGCPSGGSGGSGSLDESFYDWFERQLGKKAAAGAPVPYPDPLEPRPG
notes: Recombinant F6-F1 (Site 2-Site 1) dimer peptide with tags at both ends
B30: RB537 (peptide)
peptide: MADYKDDDDKGSLDESFYDWFERQLGKKGGSGGSWLDQEWAWVQCEVYGRGCPSAAAGAPVPYPDPLEPRPG
notes: as for B25
B31: RB435 (other, not shown: large carriers)
chain: NNNNLGIEGRISEFIEGRAQPAMAFHENFYDWFVRQVSGGSFHENFYDWFVRQVSGGSFHENFYDWFVRQVSAAAGAPVPYPDPLEPRAA
notes: MBP fusion, uncleaved
B32: RB436 (other, not shown: large carriers)
chain: NNNNLGIEGRISEFIEGRAQPAMAFHENFYDWFVRQVSGGSGGSGGSFHENFYDWFVRQVSAAAGAPVPYPDPLEPRAA
notes: MBP fusion, uncleaved
B33: RB509 (peptide)
peptide: DYKDDDDKVRVDWLQRNANFYAWFVAELGGGSGGSGGSGGSGRVDWLQRNANFYDWFVAELGAAAGAPVPYPDPLEPRAA
B34: RB508 (peptide)
peptide: DYKDDDDKVRVDWLQRNANFYDWFVAELGGGSGGSGRVDWLQRNANFYDWFVAELGAAAGAPVPYPDPLEPRSA
B35: RB535 (peptide)
peptide: MADYKDDDDKGSLDESFYDWFERQLGKKGGSGGSGGSGGSGSLDESFYDWFERQLGKKAAAGAPVPYPDPLEPRPG
notes: as for B28
B36: RB463 (other, not shown: large carriers)
chain: NNNNLGIEGRISEFIEGRAQPAMAFHENFYDWFVRQVSGGSFHENFYDWFVRQVSAAAGAPVPYPDPLEPRAA
notes: MBP fusion, uncleaved
B37: RB517 (peptide)
peptide: DYKDDDDKHLCVLEELFWGASLFGYCSGGGSGGSHLCVLEELFWGASLFGYCSGAAAGAPVPYPDPLEPRAA

Target: T1, Soluble IGF-1R (R&D Systems, Cat. # 391-GR/CF); recombinant human IGF-1R (human, UniProt P08069 31-935)
T1 construct: extracellular domain; Eu3+-labelled in the TR-FRET assays; also called sIGF-1R; rhIGF-1R
Test: phage ELISA, vs IR

Point of comparison: B4, “IGF-1R/IR Comparison” value 4.2 ratio. Against it:
- B1 — higher, 14.6 ratio
- B2 — lower, 3.3 ratio
- B3 — lower, 3.9 ratio
- B5 — higher, 4.9 ratio
- B6 — higher, 6 ratio
- B7 — higher, 4.3 ratio
- B8 — higher, 5.6 ratio
- B9 — higher, 4.8 ratio
- B10 — lower, 3.1 ratio
- B11 — higher, 12.3 ratio
- B12 — lower, 3.4 ratio
- B13 — lower, 3.6 ratio
- B14 — higher, 5.1 ratio
- B15 — higher, 5.3 ratio
- B16 — higher, 17 ratio
- B17 — lower, 3.9 ratio
- B18 — higher, 16 ratio
- B19 — higher, 4.6 ratio
- B20 — higher, 6.7 ratio
- B21 — higher, 5.9 ratio
- B22 — higher, 9.4 ratio
- B23 — higher, 4.4 ratio
- B24 — higher, 5 ratio

Target: T1, Soluble IGF-1R (R&D Systems, Cat. # …)
Test: phage ELISA vs milk

Point of comparison: B17, “Ratio over Background” value 4.3 fold. Against it:
- B1 — higher, 10.5 fold
- B2 — lower, 2.6 fold
- B3 — higher, 6.9 fold
- B4 — higher, 5.4 fold
- B5 — higher, 6.3 fold
- B6 — higher, 10.9 fold
- B7 — higher, 5.6 fold
- B8 — higher, 5.2 fold
- B9 — higher, 5.3 fold
- B10 — lower, 3.1 fold
- B11 — higher, 9.7 fold
- B12 — higher, 4.8 fold
- B13 — higher, 6.1 fold
- B14 — higher, 5.4 fold
- B15 — higher, 5.8 fold
- B16 — higher, 31 fold
- B18 — higher, 9.5 fold
- B19 — higher, 8.8 fold
- B20 — higher, 6.8 fold
- B21 — higher, 5.3 fold
- B22 — higher, 9.2 fold
- B23 — higher, 4.4 fold
- B24 — higher, 4.4 fold

Target: T2, Insulin receptor prepared according to Bass et al., 1996: soluble human insulin receptor-immunoglobulin heavy … (human, UniProt P06213 28-956)
T2 construct: extracellular domain; Eu3+-labelled in TR-FRET; also called IR; sIR-Fc; not shown: immunoglobulin heavy chain constant domains that replace the transmembrane and i
Test: phage ELISA vs milk

Point of comparison: B1, “Ratio over Background” value 0.7 fold. Against it:
- B2 — higher, 0.8 fold
- B3 — higher, 1.8 fold
- B4 — higher, 1.3 fold
- B5 — higher, 1.3 fold
- B6 — higher, 1.8 fold
- B7 — higher, 1.3 fold
- B8 — higher, 0.9 fold
- B9 — higher, 1.1 fold
- B10 — higher, 1 fold
- B11 — higher, 0.8 fold
- B12 — higher, 1.4 fold
- B13 — higher, 1.7 fold
- B14 — higher, 1.1 fold
- B15 — higher, 1.1 fold
- B16 — higher, 1.8 fold
- B17 — higher, 1.1 fold
- B18 — lower, 0.6 fold
- B19 — higher, 1.9 fold
- B20 — higher, 1 fold
- B21 — higher, 0.9 fold
- B22 — higher, 1 fold
- B23 — higher, 1 fold
- B24 — higher, 0.9 fold

Target: T2, Insulin receptor prepared according to …
Test: phage ELISA, vs IGF-1R

Point of comparison: B18, “IR/IGF-1R Comparison” value 0.1 ratio. Against it:
- B1 — the same, 0.1 ratio
- B2 — higher, 0.3 ratio
- B3 — higher, 0.3 ratio
- B4 — higher, 0.2 ratio
- B5 — higher, 0.2 ratio
- B6 — higher, 0.2 ratio
- B7 — higher, 0.2 ratio
- B8 — higher, 0.2 ratio
- B9 — higher, 0.2 ratio
- B10 — higher, 0.3 ratio
- B11 — the same, 0.1 ratio
- B12 — higher, 0.3 ratio
- B13 — higher, 0.3 ratio
- B14 — higher, 0.2 ratio
- B15 — higher, 0.2 ratio
- B16 — the same, 0.1 ratio
- B17 — higher, 0.3 ratio
- B19 — higher, 0.2 ratio
- B20 — the same, 0.1 ratio
- B21 — higher, 0.2 ratio
- B22 — the same, 0.1 ratio
- B23 — higher, 0.2 ratio
- B24 — higher, 0.2 ratio

Target: human insulin receptor (HIR) (human, UniProt P06213 28-1382, limits assumed)
Test: HIR Kd, Table 14; competition with 125I-insulin on solubilised HIR (method of Example 3, not restated for this table)

Point of comparison: B29, Kd 0.7 nM. Against it:
- B25 — 41-fold lower, 0.017 nM
- B26 — 140-fold higher, ~100 nM
- B27 — 12000-fold higher, 8300 nM
- B28 — 63-fold higher, 44 nM
- B30 — 12-fold lower, 0.059 nM
- B31 — 2900-fold higher, 2000 nM
- B32 — 590-fold higher, 410 nM
- B33 — 79-fold higher, 55 nM
- B34 — 210-fold higher, 150 nM
- B35 — 140-fold higher, ~100 nM
- B36 — 1400-fold higher, 960 nM
- B37 — 8600-fold higher, 6000 nM
